Assay results reported in publication PMC10454665, “Structural Analysis of Plasmodium falciparum Hexokinase Provides Novel Information about Catalysis Due to a Plasmodium-Specific Insertion” (International Journal of Molecular Sciences, 2023).

Biological target: the molecule itself
Experiment: SEC; HiLoad 16/60 Superdex 200 on an AKTA pure system after Talon purification; PfHK eluted at ~65 mL; mass estimated from a calibration curve

B1: Plasmodium falciparum hexokinase (enzyme)
chain: MSEYDIAKNDVTYTKLDTIECDIPINEELSWRINKFVNQLRISYSTLEEFVDNFVYELKKGLEAHRKHPNLWIPHECSFKMLDSCIANIPTGQEKGTYYAIDFGGTNFRAVRASLDGKGKIKRDQETYSLKFTGSYSHEKGLLDKHATASQLFDHFAERIKYIMGEFNDLDNKEVKSVGFTFSFPCTSPSINCSILIDWTKGFETGRATNDPVEGRDVCKLMNDAFVRAAIPAKVCCVLNDAVGTLMSCAYQKGRGTPPCYIGIILGTGSNGCYYEPEWKKYKYAGKIINIEFGNFDKDLPTSPIDLVMDWYSANRSRQLFEKMISGAYLGEIVRRFMVNVLQSACSKKMWISDSFNSESGSVVLNDTSKNFEDSRKVAKAAWDMDFTDEQIYVLRKICEAVYNRSAALARGTIAAIAKRIKIIEHSKFTCGVDGSLFVKNAWYCKRLQEHLKVILADKAENLIIIPADDGSGKGAAITAAVIALNADIPQLP
notes: Hexokinase of Plasmodium falciparum, PlasmoDB PF3D7_0624000, gene ordered codon-optimised for E. coli and cloned into pET30a-c(+); the model holds I25-N486 (subunit A) and I23-I489 (subunit B); The PlasmoDB id is that of strain 3D7; also called PfHK; P. falciparum hexokinase
stoichiometry N: 4
